Two variants from IntAct's records for PubMed 23900285 can be followed below.

The labels stand for the following.
B1: Peroxisomal biogenesis factor 3 (Saccharomyces cerevisiae), P28795 (parent)
chain: MAPNQRSRSLLQRHRGKVLISLTGIAALFTTGSVVVFFVKRWLYKQQLRITEQHFIKEQIKRRFEQTQEDSLYTIYELLPVWRMVLNENDLNLDSIVTQLKDQKNQLTRAKSSESRESSPLKSKAELWNELELKSLIKLVTVTYTVSSLILLTRLQLNILTRNEYLDSAIKLTMQQENCNKLQNRFYNWVTSWWSDPEDKADDAMVMAAKKSKKEGQEVYINEQAFLSLSWWILNKGWLSYNEIITNQIEIEFDGIHPRDTLTLEEFSSRLTNIFRNTNSQIFQQNNNNLTSILLPKDSSGQEFLLSQTLDADALTSFHSNTLVFNQLVNELTQCIESTATSIVLESLINESFHFIMNKVGIKTIAKKKPGQEDQQQYQMAVFAMSMKDCCQEMLQTTAGSSHSGSVNEYLATLDSVQPLDDLSASVYSNFGVSSSFSFKP
partner: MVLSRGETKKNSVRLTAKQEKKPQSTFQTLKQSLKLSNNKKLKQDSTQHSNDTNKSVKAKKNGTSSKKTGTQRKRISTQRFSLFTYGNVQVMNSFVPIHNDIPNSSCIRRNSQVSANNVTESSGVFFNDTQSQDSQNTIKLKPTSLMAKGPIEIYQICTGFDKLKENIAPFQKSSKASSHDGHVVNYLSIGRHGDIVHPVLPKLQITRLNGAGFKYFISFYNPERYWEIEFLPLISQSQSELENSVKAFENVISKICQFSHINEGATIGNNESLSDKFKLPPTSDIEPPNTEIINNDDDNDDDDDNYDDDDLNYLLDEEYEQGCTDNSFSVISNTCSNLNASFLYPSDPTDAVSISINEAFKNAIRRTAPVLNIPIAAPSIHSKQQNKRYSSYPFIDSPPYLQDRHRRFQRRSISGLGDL

One experiment covers variants of B1. The settings on record: with inp1_yeast INP1, Q03694.
Regarding MAPNQRSRSLLQRHRGKVLISLTGIAALFTTGSVVVFFVKRWLYKQQLRITEQHFIKEQIKRRFEQTQEDSLYTIYELLPEWRMVLNENDLNLDSIVTQLKDQKNQLTRAKSSESRESSPLKSKAELWNELELKSLIKLVTVTYTVSSLILLTRLQLNILTRNEYLDSAIKLTMQQENCNKLQNRFYNWVTSWWSDPEDKADDAMVMAAKKSKKEGQEVYINEQAFLSLSWWILNKGWLSYNEIITNQIEIEFDGIHPRDTLTLEEFSSRLTNIFRNTNSQIFQQNNNNLTSILLPKDSSGQEFLLSQTLDADALTSFHSNTLVFNQLVNELTQCIESTATSIVLESLINESFHFIMNKVGIKTIAKKKPGQEDQQQYQMAVFAMSMKDCCQEMLQTTAGSSHSGSVNEYLATLDSVQPLDDLSASVYSNFGVSSSFSFKP [V81E], the “effect of a mutation on the interaction” value is listed as “disrupting interaction”.

The next experiment covers variants of B1. The settings on record: with inp1_yeast INP1, Q03694. This is another data set of the same source.
Regarding MAPNQRSRSLLQRHRGKVLISLTGIAALFTTGSVVVFFVKRWLYKQQLRITEQHFIKEQIKRRFEQTQEDSLYTIYELLPVWRMVLNENDLNLDSIVTQLKDQKNQLTRAKSSESRESSPLKSKAELWNELELKSLIKLVTVTYTVSSLILLTRLQLNILTRNEYLDSAIKLTMQQENCNKLQNRFYIWVTSWWSDPEDKADDAMVMAAKKSKKEGQEVYINEQAFLSLSWWILNKGWLSYNEIITNQIEIEFDGIHPRDTLTLEEFSSRLTNIFRNTNSQIFQQNNNNLTSILLPKDSSGQEFLLSQTLDADALTSFHSNTLVFNQLVNELTQCIESTATSIVLESLINESFHFIMNKVGIKTIAKKKPGQEDQQQYQMAVFAMSMKDCCQEMLQTTAGSSHSGSVNEYLATLDSVQPLDDLSASVYSNFGVSSSFSFKP [N188I], the “effect of a mutation on the interaction” value is given as “decreasing interaction”.
